From FireProtDB (doi:10.1021/bi701365e)
Values joined by “and” are separate entries in the source; they are usually repeats but may differ in a detail not shown here. Equal values may be shown once.

Details: Helicobacter pylori (strain ATCC 700392 / 26695), pH 9, Thermal, EPPS 50 mM, reversible: Yes (>80%), whole UniProt chain shown

B1: Flavodoxin wild type, O25776 (protein)
chain: MGKIGIFFGTDSGNAEAIAEKISKAIGNAEVVDVAKASKEQFNSFTKVILVAPTAGAGDLQTDWEDFLGTLEASDFATKTIGLVGLGDQDTYSETFAEGIFHIYEKAKAGKVVGQTPTDGYHFEASKAVEGGKFVGLVIDEDNQDDLTDERISKWVEQVKGSFA
DSC, transition: 3
  unfolding enthalpy (van 't Hoff): 29 kcal/mol and 50 kcal/mol
Fluorescence, transition: 4
  unfolding enthalpy (van 't Hoff): 44 kcal/mol
